The test addresses human IgM-Fc (heavy chain constant domains Cμ2, Cμ3, Cμ4 and the tailpiece) (human). In words: cryo-EM structure.

The term stoichiometry N denotes the number of molecules, sites or subunits per partner or assembly.

Substance “human IgM-Fc (heavy chain constant domains Cμ2, Cμ3, Cμ4 and the tailpiece) (domain or fragment)” gave a stoichiometry N of 5.

The record behind these values is article doi:10.1101/2020.09.10.291138.
